In article PMC12661985, “USP25 deubiquitinates cytosolic METTL3 to impede glioma proliferation via an m6A-independent pathway” (iScience, 2025):

T1: His-USP25 (human, UniProt Q9UHP3 1-1055)
T1 construct: USP25, human; also called pGEX-4T-1-His-USP25; source: E. coli BL21, purified
T1 sequence (looked up): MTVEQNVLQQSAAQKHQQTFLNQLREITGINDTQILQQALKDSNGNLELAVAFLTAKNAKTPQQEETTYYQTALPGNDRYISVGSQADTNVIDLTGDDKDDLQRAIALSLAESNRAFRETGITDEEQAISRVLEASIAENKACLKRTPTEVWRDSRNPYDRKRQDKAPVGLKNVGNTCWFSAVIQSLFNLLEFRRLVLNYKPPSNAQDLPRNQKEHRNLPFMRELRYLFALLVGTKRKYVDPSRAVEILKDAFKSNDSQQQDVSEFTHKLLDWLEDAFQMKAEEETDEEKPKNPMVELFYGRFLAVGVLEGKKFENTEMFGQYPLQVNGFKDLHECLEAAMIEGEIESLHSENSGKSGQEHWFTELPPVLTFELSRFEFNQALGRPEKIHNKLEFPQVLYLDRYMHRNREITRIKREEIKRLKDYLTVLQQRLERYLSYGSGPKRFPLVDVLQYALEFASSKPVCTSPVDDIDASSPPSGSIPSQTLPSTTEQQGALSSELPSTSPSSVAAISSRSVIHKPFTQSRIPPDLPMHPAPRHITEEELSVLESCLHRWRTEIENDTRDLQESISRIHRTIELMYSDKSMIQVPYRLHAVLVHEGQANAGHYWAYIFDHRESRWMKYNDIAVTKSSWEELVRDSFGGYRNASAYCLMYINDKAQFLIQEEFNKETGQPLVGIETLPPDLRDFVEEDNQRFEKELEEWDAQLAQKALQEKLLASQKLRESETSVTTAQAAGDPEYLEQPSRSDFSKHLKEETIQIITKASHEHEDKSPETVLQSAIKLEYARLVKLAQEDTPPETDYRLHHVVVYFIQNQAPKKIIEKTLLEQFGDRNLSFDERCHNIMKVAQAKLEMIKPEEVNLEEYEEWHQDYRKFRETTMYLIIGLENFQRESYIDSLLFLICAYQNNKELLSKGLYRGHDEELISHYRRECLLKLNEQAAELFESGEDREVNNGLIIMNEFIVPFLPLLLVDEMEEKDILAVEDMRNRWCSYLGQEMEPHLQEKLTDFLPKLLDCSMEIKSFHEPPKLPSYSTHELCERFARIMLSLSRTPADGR

B1: GST-USP25-166-718 (domain or fragment, human, UniProt Q9UHP3 166-718, looked up)
chain: KAPVGLKNVGNTCWFSAVIQSLFNLLEFRRLVLNYKPPSNAQDLPRNQKEHRNLPFMRELRYLFALLVGTKRKYVDPSRAVEILKDAFKSNDSQQQDVSEFTHKLLDWLEDAFQMKAEEETDEEKPKNPMVELFYGRFLAVGVLEGKKFENTEMFGQYPLQVNGFKDLHECLEAAMIEGEIESLHSENSGKSGQEHWFTELPPVLTFELSRFEFNQALGRPEKIHNKLEFPQVLYLDRYMHRNREITRIKREEIKRLKDYLTVLQQRLERYLSYGSGPKRFPLVDVLQYALEFASSKPVCTSPVDDIDASSPPSGSIPSQTLPSTTEQQGALSSELPSTSPSSVAAISSRSVIHKPFTQSRIPPDLPMHPAPRHITEEELSVLESCLHRWRTEIENDTRDLQESISRIHRTIELMYSDKSMIQVPYRLHAVLVHEGQANAGHYWAYIFDHRESRWMKYNDIAVTKSSWEELVRDSFGGYRNASAYCLMYINDKAQFLIQEEFNKETGQPLVGIETLPPDLRDFVEEDNQRFEKELEEWDAQLAQKALQEKLLA
notes: USP25, human, USP domain, residues 166-718; also called USP domain (aa 166-718) of USP25; pGEX-4T-1-GST-USP25-166-718; source: E. coli BL21, purified (glutathione Sepharose)
B2: GST-METTL3-369-424 (domain or fragment, human, UniProt Q86U44 369-424, looked up)
chain: FPPQWICCDIRYLDVSILGKFAVVMADPPWDIHMELPYGTLTDDEMRRLNIPVLQD
notes: METTL3, human, Gate-loop 1; source: E. coli BL21, purified (glutathione Sepharose)
B3: GST-METTL3-425-500 (domain or fragment, human, UniProt Q86U44 425-500, looked up)
chain: DGFLFLWVTGRAMELGRECLNLWGYERVDEIIWVKTNQLQRIIRTGRTGHWLNHGKEHCLVGVKGNPQGFNQGLDC
notes: METTL3, human, Interface loop, residues 425-500; also called Interface loop (aa 425-500) of METTL3; pGEX-4T-1-GST-METTL3-425-500; source: E. coli BL21, purified (glutathione Sepharose)

Tests used:
His-METTL3 = molecular target: T2, His-METTL3 (human, UniProt Q86U44 1-580); test: pull-down; about 10 ug GST fusion protein on glutathione Sepharose incubated with recombinant His-tagged protein, 2 h at 4 C, six washes with NETN buffer; blot with His antibodies; conditions: both partners purified
T2 construct: METTL3, human; also called pGEX-4T-1-His-METTL3; source: E. coli BL21, purified

His-USP25 = molecular target: T1, His-USP25; test: as above; conditions: both partners purified

T2 sequence (Q86U44 whole entry, the tested form may be a part): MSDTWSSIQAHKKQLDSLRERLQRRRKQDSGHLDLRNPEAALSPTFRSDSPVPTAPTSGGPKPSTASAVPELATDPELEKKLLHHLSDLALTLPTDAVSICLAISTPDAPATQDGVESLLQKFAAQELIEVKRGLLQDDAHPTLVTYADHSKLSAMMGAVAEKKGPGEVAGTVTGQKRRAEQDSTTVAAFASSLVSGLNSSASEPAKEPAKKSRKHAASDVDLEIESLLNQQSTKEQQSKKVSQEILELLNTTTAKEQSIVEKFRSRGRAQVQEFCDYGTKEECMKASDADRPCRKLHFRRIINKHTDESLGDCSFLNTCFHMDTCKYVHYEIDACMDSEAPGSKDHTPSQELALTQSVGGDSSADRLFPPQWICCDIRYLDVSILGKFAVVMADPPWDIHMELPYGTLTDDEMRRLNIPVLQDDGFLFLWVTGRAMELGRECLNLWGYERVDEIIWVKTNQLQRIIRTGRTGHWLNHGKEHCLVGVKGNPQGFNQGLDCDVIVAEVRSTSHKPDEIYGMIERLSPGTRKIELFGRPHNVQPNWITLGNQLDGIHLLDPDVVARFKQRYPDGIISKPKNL

Binder	binding result (His-METTL3)	binding result (His-USP25)
B1	binds	
B2		binds
B3		binds
